Here are results for 9 molecules from patent US20240182536A1 (MURAL ONCOLOGY, published 2024).

Assay [1] deals with T1, IL-18 receptors on HEK-Blue IL-18 reporter cells (UniProt Q13478 19-541; O95256 20-599, limits assumed).
T1 sequence (looked up) 1: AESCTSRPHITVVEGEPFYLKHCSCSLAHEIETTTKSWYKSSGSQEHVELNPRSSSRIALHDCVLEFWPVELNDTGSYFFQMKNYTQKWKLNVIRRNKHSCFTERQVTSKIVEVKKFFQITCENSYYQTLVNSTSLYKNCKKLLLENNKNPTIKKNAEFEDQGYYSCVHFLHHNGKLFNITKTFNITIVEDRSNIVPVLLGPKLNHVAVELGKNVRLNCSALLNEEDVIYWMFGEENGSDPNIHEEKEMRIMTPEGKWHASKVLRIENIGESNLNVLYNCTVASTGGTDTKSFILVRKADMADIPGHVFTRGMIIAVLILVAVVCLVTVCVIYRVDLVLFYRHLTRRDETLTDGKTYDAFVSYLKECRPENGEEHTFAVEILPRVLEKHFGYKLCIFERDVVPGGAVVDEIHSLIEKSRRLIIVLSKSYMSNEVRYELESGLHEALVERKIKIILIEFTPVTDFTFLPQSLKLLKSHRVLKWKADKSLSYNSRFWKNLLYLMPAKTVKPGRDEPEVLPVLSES
T1 sequence (looked up) 2: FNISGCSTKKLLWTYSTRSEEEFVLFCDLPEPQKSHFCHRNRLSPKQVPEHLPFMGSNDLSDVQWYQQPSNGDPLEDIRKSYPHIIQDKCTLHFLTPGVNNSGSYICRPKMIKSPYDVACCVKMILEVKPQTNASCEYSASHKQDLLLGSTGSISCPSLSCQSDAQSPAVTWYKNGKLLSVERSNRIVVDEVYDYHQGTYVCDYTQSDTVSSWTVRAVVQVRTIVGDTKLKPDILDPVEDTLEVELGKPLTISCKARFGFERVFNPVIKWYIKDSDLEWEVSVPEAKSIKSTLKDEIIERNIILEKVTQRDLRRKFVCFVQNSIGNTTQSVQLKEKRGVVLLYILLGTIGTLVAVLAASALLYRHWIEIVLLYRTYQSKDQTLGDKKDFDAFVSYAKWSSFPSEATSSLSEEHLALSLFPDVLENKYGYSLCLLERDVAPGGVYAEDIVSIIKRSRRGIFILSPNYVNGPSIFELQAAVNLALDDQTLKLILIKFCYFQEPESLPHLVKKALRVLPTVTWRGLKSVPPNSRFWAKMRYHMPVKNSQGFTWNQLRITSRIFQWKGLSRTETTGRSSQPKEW
In words: cell-based or functional assay.

The target of assay [2] is T2, IL-18 binding protein (IL-18BP) (UniProt O95998 31-194).
T2 sequence (looked up): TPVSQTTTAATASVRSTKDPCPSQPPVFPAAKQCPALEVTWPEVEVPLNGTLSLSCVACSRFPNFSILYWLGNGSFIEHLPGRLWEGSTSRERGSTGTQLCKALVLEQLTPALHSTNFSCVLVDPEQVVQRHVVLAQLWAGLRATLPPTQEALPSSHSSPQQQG
In words: cell-based or functional assay.

B1: IL-18 variant G3L, E6Q, T63S, N91L, R104T (ligand)
chain: YFLKLQSKLSVIRNLNDQVLFIDQGNRPLFEDMTDSDMRDNAPRTIFIISMYKDSQPRGMAVSISVKSEKISTLSSENKIISFKEMNPPDLIKDTKSDIIFFQTSVPGHDNKMQFESSSYEGYFLASEKERDLFKLILKKEDELGDRSIMFTVQNED
Take B1: in assay [1], the “Activity, No BP, DF-100000” value worked out at 2.12; the “Activity, No BP, DF-500000” value was 2.01; the “Activity, No BP, DF-2500000” value is 1.85. Moreover, in assay [2], the “Activity, +100 nM BP, DF-1000002” value is 1.81; the “Activity, +100 nM BP, DF-5000003” value was found to be 1.15; the “Activity, +100 nM BP, DF-25000004” value was determined as 0.46; the “Ratio (-BP/+BP), DF-1000005” value amounted to 1.17. For the same molecule, in assay [2], the “Ratio (-BP/+BP), DF-5000006” value is 1.75 and the “Ratio (-BP/+BP), DF-25000007” value stood at 4.

B2: IL-18 variant G3E, E6H, R27S, D54A, S55T, T63S, N91F, R104S (ligand)
chain: YFEKLHSKLSVIRNLNDQVLFIDQGNSPLFEDMTDSDMRDNAPRTIFIISMYKATQPRGMAVSISVKSEKISTLSSENKIISFKEMNPPDFIKDTKSDIIFFQSSVPGHDNKMQFESSSYEGYFLASEKERDLFKLILKKEDELGDRSIMFTVQNED
B2: in assay [1], the “Activity, No BP, DF-100000” value turned out to be 2.08; the “Activity, No BP, DF-500000” value is 1.83; the “Activity, No BP, DF-2500000” value came to 1.14. In assay [2], the “Activity, +100 nM BP, DF-1000002” value amounted to 1.8; the “Activity, +100 nM BP, DF-5000003” value was found to be 1.11; the “Activity, +100 nM BP, DF-25000004” value amounted to 0.41; the “Ratio (-BP/+BP), DF-1000005” value was determined as 1.16. Moreover, in assay [2], the “Ratio (-BP/+BP), DF-5000006” value came to 1.65 and the “Ratio (-BP/+BP), DF-25000007” value amounted to 2.79.

B3: IL-18 variant G3V, E6Q, T34P, D54M, S55F, N91R, R104H (ligand)
chain: YFVKLQSKLSVIRNLNDQVLFIDQGNRPLFEDMPDSDMRDNAPRTIFIISMYKMFQPRGMAVTISVKSEKISTLSSENKIISFKEMNPPDRIKDTKSDIIFFQHSVPGHDNKMQFESSSYEGYFLASEKERDLFKLILKKEDELGDRSIMFTVQNED
Consider B3, for which, in assay [1], the “Activity, No BP, DF-100000” value came out at 0.97; the “Activity, No BP, DF-500000” value is 0.41; the “Activity, No BP, DF-2500000” value worked out at 0.13. In assay [2], the “Activity, +100 nM BP, DF-1000002” value was determined as 0.14; the “Activity, +100 nM BP, DF-5000003” value worked out at 0.08; the “Activity, +100 nM BP, DF-25000004” value was 0.08; the “Ratio (-BP/+BP), DF-1000005” value stood at 6.88. Besides, in assay [2], the “Ratio (-BP/+BP), DF-5000006” value worked out at 4.95 and the “Ratio (-BP/+BP), DF-25000007” value worked out at 1.77.

B4: IL-18 variant E6G, D54A, S55K, T63S, N91K, Q114R (ligand)
chain: YFGKLGSKLSVIRNLNDQVLFIDQGNRPLFEDMTDSDMRDNAPRTIFIISMYKAKQPRGMAVSISVKSEKISTLSSENKIISFKEMNPPDKIKDTKSDIIFFQRSVPGHDNKMRFESSSYEGYFLASEKERDLFKLILKKEDELGDRSIMFTVQNED
Regarding B4, in assay [1], the “Activity, No BP, DF-100000” value amounted to 2.2; the “Activity, No BP, DF-500000” value turned out to be 2.05; the “Activity, No BP, DF-2500000” value came to 1.61. Besides, in assay [2], the “Activity, +100 nM BP, DF-1000002” value came out at 1.89; the “Activity, +100 nM BP, DF-5000003” value worked out at 1.33; the “Activity, +100 nM BP, DF-25000004” value turned out to be 0.49; the “Ratio (-BP/+BP), DF-1000005” value turned out to be 1.17. Besides, in assay [2], the “Ratio (-BP/+BP), DF-5000006” value was 1.54 and the “Ratio (-BP/+BP), DF-25000007” value turned out to be 3.3.

B5: IL-18 variant G3D, E6Q, R27S, K53R, D54A, S55R, T63S, N91Q (ligand)
chain: YFDKLQSKLSVIRNLNDQVLFIDQGNSPLFEDMTDSDMRDNAPRTIFIISMYRARQPRGMAVSISVKSEKISTLSSENKIISFKEMNPPDQIKDTKSDIIFFQRSVPGHDNKMQFESSSYEGYFLASEKERDLFKLILKKEDELGDRSIMFTVQNED
Consider B5, for which, in assay [1], the “Activity, No BP, DF-100000” value turned out to be 1.02; the “Activity, No BP, DF-500000” value was 0.41; the “Activity, No BP, DF-2500000” value came out at 0.13. Besides, in assay [2], the “Activity, +100 nM BP, DF-1000002” value stood at 0.52; the “Activity, +100 nM BP, DF-5000003” value came to 0.15; the “Activity, +100 nM BP, DF-25000004” value amounted to 0.09; the “Ratio (-BP/+BP), DF-1000005” value turned out to be 1.95. Moreover, in assay [2], the “Ratio (-BP/+BP), DF-5000006” value amounted to 2.81 and the “Ratio (-BP/+BP), DF-25000007” value was found to be 1.5.

B6: IL-18 variant E6D, D54T, S55W, T63S, N91S, R104T (ligand)
chain: YFGKLDSKLSVIRNLNDQVLFIDQGNRPLFEDMTDSDMRDNAPRTIFIISMYKTWQPRGMAVSISVKSEKISTLSSENKIISFKEMNPPDSIKDTKSDIIFFQTSVPGHDNKMQFESSSYEGYFLASEKERDLFKLILKKEDELGDRSIMFTVQNED
Take B6: in assay [1], the “Activity, No BP, DF-100000” value was 1.27; the “Activity, No BP, DF-500000” value amounted to 0.55; the “Activity, No BP, DF-2500000” value was 0.18. In assay [2], the “Activity, +100 nM BP, DF-1000002” value was 0.37; the “Activity, +100 nM BP, DF-5000003” value is 0.15; the “Activity, +100 nM BP, DF-25000004” value turned out to be 0.1; the “Ratio (-BP/+BP), DF-1000005” value was 3.41. Moreover, in assay [2], the “Ratio (-BP/+BP), DF-5000006” value was found to be 3.62 and the “Ratio (-BP/+BP), DF-25000007” value was determined as 1.93.

B7: IL-18 variant G3I, E6Q, N91M, R104Y (ligand)
chain: YFIKLQSKLSVIRNLNDQVLFIDQGNRPLFEDMTDSDMRDNAPRTIFIISMYKDSQPRGMAVTISVKSEKISTLSSENKIISFKEMNPPDMIKDTKSDIIFFQYSVPGHDNKMQFESSSYEGYFLASEKERDLFKLILKKEDELGDRSIMFTVQNED
Turning to B7, in assay [1], the “Activity, No BP, DF-100000” value came to 2.12; the “Activity, No BP, DF-500000” value worked out at 2; the “Activity, No BP, DF-2500000” value is 1.53. Besides, in assay [2], the “Activity, +100 nM BP, DF-1000002” value is 1.84; the “Activity, +100 nM BP, DF-5000003” value came to 0.96; the “Activity, +100 nM BP, DF-25000004” value is 0.29; the “Ratio (-BP/+BP), DF-1000005” value came to 1.15. Besides, in assay [2], the “Ratio (-BP/+BP), DF-5000006” value came to 2.07 and the “Ratio (-BP/+BP), DF-25000007” value stood at 5.26.

B8: IL-18 variant N91S, R104H (ligand)
chain: YFGKLESKLSVIRNLNDQVLFIDQGNRPLFEDMTDSDMRDNAPRTIFIISMYKDSQPRGMAVTISVKSEKISTLSSENKIISFKEMNPPDSIKDTKSDIIFFQHSVPGHDNKMQFESSSYEGYFLASEKERDLFKLILKKEDELGDRSIMFTVQNED
Regarding B8, in assay [1], the “Activity, No BP, DF-100000” value was 1.34; the “Activity, No BP, DF-500000” value amounted to 0.61; the “Activity, No BP, DF-2500000” value was 0.19. Also, in assay [2], the “Activity, +100 nM BP, DF-1000002” value was found to be 0.09; the “Activity, +100 nM BP, DF-5000003” value came out at 0.08; the “Activity, +100 nM BP, DF-25000004” value was 0.11; the “Ratio (-BP/+BP), DF-1000005” value is 14.7. Moreover, in assay [2], the “Ratio (-BP/+BP), DF-5000006” value is 7.35 and the “Ratio (-BP/+BP), DF-25000007” value was 1.72.

B9: IL-18 variant G3L, E6Q, D54Y, S55P, T63S, N91S, R104Q (ligand)
chain: YFLKLQSKLSVIRNLNDQVLFIDQGNRPLFEDMTDSDMRDNAPRTIFIISMYKYPQPRGMAVSISVKSEKISTLSSENKIISFKEMNPPDSIKDTKSDIIFFQQSVPGHDNKMQFESSSYEGYFLASEKERDLFKLILKKEDELGDRSIMFTVQNED
Regarding B9, in assay [1], the “Activity, No BP, DF-100000” value was found to be 1.66; the “Activity, No BP, DF-500000” value came to 0.9; the “Activity, No BP, DF-2500000” value came to 0.37. Besides, in assay [2], the “Activity, +100 nM BP, DF-1000002” value is 0.75; the “Activity, +100 nM BP, DF-5000003” value worked out at 0.19; the “Activity, +100 nM BP, DF-25000004” value was 0.1; the “Ratio (-BP/+BP), DF-1000005” value was 2.23. Besides, in assay [2], the “Ratio (-BP/+BP), DF-5000006” value is 4.67 and the “Ratio (-BP/+BP), DF-25000007” value was determined as 3.8.
